# Patent publication US20140193431A1 (KOREA RESEARCH INSTITUTE OF BIOSCIENCE AND BIOTECHNOLOGY, published 2014)
# Assays:
# [1] = target: c-Met (ligand of the SPR analysis, form not stated) (UniProt P08581); assay: SPR (ProteOn XPR36), B7 at 2.5 to 80 nM as analyte, Langmuir 1:1 fit, grouped
# [2] = target: c-Met (ligand of the SPR analysis, form not stated) (UniProt P08581); assay: SPR (ProteOn XPR36), B7 antibody flowed at 2.5-80 nM, Langmuir 1:1 model; immobilised protein not named
# [3] = target: T1, dog Met receptor on MDCK cells (dog, UniProt Q75ZY9 25-1382); assay: FACS on MDCK cells, Alexa Fluor 488 anti-human IgG
# T1 construct: whole, on cells; also called Met receptor of dog kidney MDCK (Madin-Darby Canine Kidney) cells
# Experimental: Each of Hep3B, HeLa, A549 and HepG2, known to readily express the Met receptor, MCF7 cells known to not readily express the Met receptor, and dog kidney MDCK (Madin-Darby Canine Kidney) cells was prepared, washed twice with PBS, detached by treatment with trypsin, washed again with PBS, and then suspended in PBS (PBA buffer) containing 1% BSA protein. Then, the cells were treated with the purified with the purified B7 antibody at 1:100 at 4° C., after which the cells were washed with PBA buffer and precipitated by centrifugation at 1200 rpm for 3 minutes, and the washing and precipitation process was repeated three times. […] The cells were washed in the same manner as described above and subjected to FACS analysis (BD Cantoll Flow Cytometer) (FIG. 6). Herein, human IgG (hIgG) was used as the internal standard. FIG. 6 is a graphic diagram showing the results of FACS analysis performed to examine whether the B7 antibody did bind to Hep3B, HeLa, A549, HepG2, MCF7 and dog kidney MDCK cells.
# T1 sequence (Q75ZY9 25-1382): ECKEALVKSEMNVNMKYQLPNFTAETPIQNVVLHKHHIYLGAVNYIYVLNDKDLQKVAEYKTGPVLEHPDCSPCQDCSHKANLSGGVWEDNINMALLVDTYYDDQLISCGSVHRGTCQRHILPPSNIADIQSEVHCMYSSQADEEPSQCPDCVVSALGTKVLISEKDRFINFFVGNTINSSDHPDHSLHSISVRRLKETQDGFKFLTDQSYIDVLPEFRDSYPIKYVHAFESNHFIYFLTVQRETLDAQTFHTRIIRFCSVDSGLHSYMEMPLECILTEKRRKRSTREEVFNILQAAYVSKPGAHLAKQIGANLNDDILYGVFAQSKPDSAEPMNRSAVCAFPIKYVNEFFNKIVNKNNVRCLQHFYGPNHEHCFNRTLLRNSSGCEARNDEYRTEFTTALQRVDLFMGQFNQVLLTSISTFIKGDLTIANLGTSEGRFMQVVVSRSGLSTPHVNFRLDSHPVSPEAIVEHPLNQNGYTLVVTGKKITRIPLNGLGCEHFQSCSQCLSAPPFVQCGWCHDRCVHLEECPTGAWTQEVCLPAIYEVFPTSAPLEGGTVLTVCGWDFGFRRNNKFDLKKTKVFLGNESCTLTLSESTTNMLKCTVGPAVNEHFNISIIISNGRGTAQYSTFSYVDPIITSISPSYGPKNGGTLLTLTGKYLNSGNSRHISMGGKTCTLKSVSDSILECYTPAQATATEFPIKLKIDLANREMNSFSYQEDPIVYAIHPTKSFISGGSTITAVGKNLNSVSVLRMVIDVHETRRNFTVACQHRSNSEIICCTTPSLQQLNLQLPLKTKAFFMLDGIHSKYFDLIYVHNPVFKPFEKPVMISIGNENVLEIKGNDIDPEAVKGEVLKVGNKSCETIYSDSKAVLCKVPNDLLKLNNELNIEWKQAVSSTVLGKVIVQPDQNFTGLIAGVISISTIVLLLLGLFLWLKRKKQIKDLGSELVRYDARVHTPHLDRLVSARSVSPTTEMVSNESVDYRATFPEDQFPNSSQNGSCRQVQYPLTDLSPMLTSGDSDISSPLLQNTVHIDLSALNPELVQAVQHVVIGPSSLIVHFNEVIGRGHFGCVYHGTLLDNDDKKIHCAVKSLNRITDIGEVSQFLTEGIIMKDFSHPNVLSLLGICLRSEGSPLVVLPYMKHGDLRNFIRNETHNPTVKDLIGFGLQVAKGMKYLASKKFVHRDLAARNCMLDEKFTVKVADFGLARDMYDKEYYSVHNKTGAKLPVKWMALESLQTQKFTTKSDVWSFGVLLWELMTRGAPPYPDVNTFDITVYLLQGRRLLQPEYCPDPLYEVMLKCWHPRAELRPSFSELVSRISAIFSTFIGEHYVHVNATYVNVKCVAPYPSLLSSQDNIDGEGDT
binder,measurement,setting,value
"B7 antibody (human anti-c-Met antibody, whole IgG) (antibody, V domains shown, Whole IgG made by cloning the B7 phage variable regions into pNATABH/pNATABL vectors and expressing them in 293E cells; also called human antibody B7; C-Met B7 antibody) VH: QVQLQEWGAGLLKPSETLSLTCAVSGGSLSGHYWSWVRLPPGKGLEWIGEISHSGNTNYNSSLKSRASISIDTSKNEYSLNLKSVTAVDTAVYYCARFYGDYPSSYGMDVWGQGTTVTVSS VL: QSALTQPASVSGSPGQSITISCTGTISDIGTYDFVSWYQHKPGKAPKLLIFDVNNRPSGVSSRFSGSKSDNTASLSISGFQAEDEADYYCSSYTDNRGLVLFGGGTKLTVLR",kon,[1],73000 M⁻¹ s⁻¹
same,Kd,[2],3.3 nM
same,binding result,[3],no binding (tested: 1:100)
